Data taken from patent US9827288B2, “Method for treating a refractory or relapsed lung cancer” (MYCOMAGIC BIOTECHNOLOGY CO., LTD., priority 2015, dated 2017).

B1: GMI: recombinant immunomodulatory protein derived from Ganoderma microsporum, manufactured by Mycomagic Biotechnology per U.S. Pat. No. 7,601,808 (protein)
chain: EAEAEFMSDTALIFTLAWNVKQLAFDYTPNWGRGRPSSFIDTVTFPTVLTDKAYTYRVVVSGKDLGVRPSYAVESDGSQKINFLEYNSGYGIADTNTIQVYVIDPDTGNNFIVAQWNYLEQKLISEEDLNSAVDHHHHHH
modifications: Ganoderma microsporum (GMI) or a recombinant thereof (reGMI)
B2: rLZ-8: his-tagged recombinant fungal immunomodulatory protein LZ-8 from Ganoderma lucidum (SEQ ID NO:5) (protein, listed as Ganoderma lucidum)
chain: MSDTALIFRLAWDVKKLSFDYTPNWGRGNPNNFIDTVTTFPKVLTDKAYTYRVAVSGRNLGVKPSYAVESDGSQKVNFLEYNSGYGIADTNTIQVFVVDPDTNNDFIIAQWN
modifications: His tag

Legend:
EGFR [1] = biological target: T1, EGFR (Homo sapiens, UniProt P00533); assay: Western blotting to detect expression of EGFR in CL1-5 and H226 cells; type: cell-based; parameters: endogenous in cells; host or cells: CL1-5 and H226 cells; details: 5 μg/ml for CL1-5 and 10 μg/ml for H226, 0-12 h
Protocol: CL1-5 and H226 cells were incubated with rLZ-8 and GMI (5 μg/ml for CL1-5 and 10 μg/ml for H226) for 0-12 h followed by western blotting to detect expression of EGFR. […] The regulatory mechanisms of ligand-induced EGFR degradation dependent on endocytosis (Hicke L., FASEB J. 1997; 11:1215-26.). To investigate whether rLZ-8-induced EGFR degradation by inducing endocytosis, we performed depletion of clathrin heavy chain experiments in NSCLC cells. Using clathrin heavy chain shRNAs such as #2755 (sh-S1), #2757 (sh-S2) and #7981 (sh-S3), we confirm the efficacy of clathrin shRNAs, and we found (via Western blot analysis) that clathrin knockdown leads to a reduction in the overall protein levels of clathrin in CL1-5 and H226 cells (FIG. 4B). Next, we examined whether the rLZ-8-induced EGFR degradation dependent on clathrin-mediated endocytosis in NSCLC cells.

EGFR [2] = assay: Western blot of EGFR level in H1975 cells; type: cell-based, human
Protocol: Knocking down of EGFR by EGFR siRNA activated activity of caspase3/7, resulting in apoptosis in gefitinib-resistant H1975 cells (Chen G et al., BMC Med. 2012; 10:28). To investigate the apoptosis, human H1975 cells were seed in 60-mm plat-dish and incubated with rLZ-8 (5 μg/ml) and GMI (10 μg/ml) for 48 hours and 72 hours, respectively.

LLC1 cells = assay: Tumor growth in LLC1 allograft mice; type: in vivo; details: vs PBS
Protocol: Male C57BL/6 (6-8 weeks of age) mice were subcutaneously inoculated with LLC1 cells and randomly divided into two groups. Seven days after implantation, the mice were treated with GMI (5 mg/kg) via i.p. injections at intervals of 4 days. The control group received an equal volume of sterile PBS.
The mice will be weighed and randomly distributed across the different experimental groups (n=5). At day 0, approximately 2×10^5 lung cancer cells suspended in 100 μl serum free DMEM will be subcutaneously (s.c.) implanted into the right flank of all mice for easy observed detection. The mice were sacrificed on the 25th day and the tumors were then excised. […] Tumor size was measured (FIG. 1A) for each mouse using a set of digital calipers at 4 days, and the tumor volume was calculated by the formula L1×L2×H, where L1 is long diameter, L2 is the short diameter and H is the height of the tumor. Representative images of the tumors on the 25th day (FIG. 1B).
We further examined the effect of rLZ-8 on mice with LLC1-allograft in vivo. LLC1 cells were subcutaneously injected into male C57BL6 mice, and the tumor growth rate was assessed over 17 days.

EGFR [3] = biological target: T1, EGFR; assay: Co-localization with EGFR by fluorescence microscopy; type: cell-based; parameters: endogenous in cells; host or cells: CL1-5 and H226 cells; details: H226 cells
Protocol: (§1) Science the downregulation of EGFR by rLZ-8 and GMI may involve an intracellular pathway similar to that induced by EGF-mediated EGFR endocytosis and degradation, we hypothesized that rLZ-8 and GMI could interact with EGFR. The co-locolization of rLZ-8/GMI and EGFR were determined by fluorescence microscopy. […] To further examine the association of rLZ-8 and EGFR, immunoprecipitation assay was performed by anti-EGFR and anti-his-tag (for detecting rLZ-8) antibody.

EGFR [4] = biological target: T1, EGFR; assay: Immunoprecipitation assay with anti-EGFR and anti-his-tag antibody; type: binding; parameters: After treatment of rLZ-8 in A549; endogenous in cells; host or cells: A549 cells; details: A549 cells treated with rLZ-8
Protocol: as §1

Molecule | EGFR protein levels (EGFR [1]) | EGFR level (EGFR [2]; GMI 10 μg/ml, 72 hours) | tumor volume (LLC1 cells; LLC1-bearing male C57BL/6 mice, GMI 5 mg/kg i.p. at intervals of 4 days from day 7, to 25th day) | EGFR level (EGFR [2]; rLZ-8 5 μg/ml, 48 hours) | co-localization with EGFR (EGFR [3]) | association with EGFR (immunoprecipitation) (EGFR [4]) | tumor volume (LLC1 cells; LLC1-bearing male C57BL6 mice, rLZ-8 7.5 mg/kg, over 17 days) | tumor weight (LLC1 cells; LLC1-bearing male C57BL6 mice, rLZ-8 7.5 mg/kg)
B1 | significantly suppressed the EGFR protein levels | induced downregulation of EGFR level | significantly decreases tumor volume |  |  |  |  | 
B2 | significantly suppressed the EGFR protein levels |  |  | induced downregulation of EGFR level | mainly co-localized on the plasma membrane and formed the punctuate intracellular clusters in the cytoplasm | present in the immunoprecipitants obtained by the anti-EGFR antibody | significantly decreases tumor volume | significantly decreases
